# Results taken from FireProtDB (doi:10.1021/acs.biochem.7b00571).
# Conditions: Nicotiana tabacum; pH 7.2; 4 °C; Urea; Fluorescence; BES; reversible: yes; whole UniProt chain shown
protein,measurement,value
"Salicylic acid-binding protein 2 wild type, Q6RYA0 (protein) MKEGKHFVLVHGACHGGWSWYKLKPLLEAAGHKVTALDLAASGTDLRKIEELRTLYDYTLPLMELMESLSADEKVILVGHSLGGMNLGLAMEKYPQKIYAAVFLAAFMPDSVHNSSFVLEQYNERTPAENWLDTQFLPYGSPEEPLTSMFFGPKFLAHKLYQLCSPEDLALASSLVRPSSLFMEDLSKAKYFTDERFGSVKRVYIVCTEDKGIPEEFQRWQIDNIGVTEAIEIKGADHMAMLCEPQKLCASLLEIAHKYN",denaturant midpoint (higher = more stable),2.2 M
